In the test the target is laminin-332 produced and deposited by iNFs and iCAFs (human (endogenous in iNFs and iCAFs)) (UniProt Q16787).

For the substance “integrin α3β1 (from UniProt P26006 33-1051; P05556 21-798) (receptor)”, the contraction of a collagen-I gel by iCAFs, untreated (reference) came out at 73%; the contraction of a collagen-I gel by iCAFs, with BM2 (20 µg/mL) was found to be 44%; the contraction of a collagen-I gel by iCAFs, with lebein-1 (10 µg/mL) came to 34%.

(Values after publication PMC6356648.)
